Literature values, collected in article PMC3985900.

How the values were obtained:
Glu85 = Glu85 (UniProt position 98, WARYAEWLFTT); test: UV-vis; details: Resting state, with retinal bound
Asp85 = Asp85 (UniProt position 98, WARYADWLFTT); test: UV-vis; details: Resting state, with retinal bound

Row | Substance | pKa (Glu85) | pKa (Asp85)
1 | Bacteriorhodopsin D85E (Halobacterium salinarum; D85E) | 9.4 | 
2 | Bacteriorhodopsin (native, purple membrane) (Halobacterium salinarum) |  | ∼3
